{
  "source": "paper PMC4552487",
  "target": "Parkin 80-465 (UniProt O60260)",
  "assay": "AlphaScreen, competition with GST-Ubl (1-76)",
  "conditions": "reference: unphosphorylated Ubl (1-76); sites S65",
  "data": [
    {"substance": "Parkin Ubl domain, 1-76 (from UniProt O60260) Ubl (1-76) phosphorylated by TcPINK1, Mono-Q purified", "values": [
      {"measurement": "binding against the reference", "result": "weaker"}
    ]}
  ]
}
